According to paper PMC12205646:

Target: Hsp90-CYF61 homodimer (used as WT in the ATPase assays) (S. cerevisiae) (UniProt P02829)
Sequence of UniProt P02829 (P02829 whole entry): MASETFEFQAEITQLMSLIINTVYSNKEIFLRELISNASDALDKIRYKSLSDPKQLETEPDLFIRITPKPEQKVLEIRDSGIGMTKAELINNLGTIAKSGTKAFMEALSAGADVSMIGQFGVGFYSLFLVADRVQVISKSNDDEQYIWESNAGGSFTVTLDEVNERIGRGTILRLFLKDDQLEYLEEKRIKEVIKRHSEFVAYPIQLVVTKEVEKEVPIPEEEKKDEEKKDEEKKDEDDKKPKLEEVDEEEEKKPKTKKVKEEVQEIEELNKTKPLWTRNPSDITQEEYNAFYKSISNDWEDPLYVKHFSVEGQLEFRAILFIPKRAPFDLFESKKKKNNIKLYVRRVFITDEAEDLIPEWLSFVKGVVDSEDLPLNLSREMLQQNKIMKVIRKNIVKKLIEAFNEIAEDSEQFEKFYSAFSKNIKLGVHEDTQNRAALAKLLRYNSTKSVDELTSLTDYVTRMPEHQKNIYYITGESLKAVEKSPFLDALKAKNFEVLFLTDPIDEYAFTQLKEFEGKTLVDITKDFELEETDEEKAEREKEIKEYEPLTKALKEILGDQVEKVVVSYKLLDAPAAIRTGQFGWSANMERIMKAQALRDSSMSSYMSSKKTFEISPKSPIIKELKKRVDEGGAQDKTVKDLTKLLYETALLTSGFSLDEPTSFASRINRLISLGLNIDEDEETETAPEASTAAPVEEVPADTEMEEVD

B1: Aha1 (activator of Hsp90 activity 1) cochaperone (natural protein)
chain: MVVNNPNNWHWVDKNCIGWAKEYFKQKLVGVEAGSVKDKKYAKIKSVSSIEGDCEVNQRKGKVISLFDLKITVLIEGHVDSKDGSALPFEGSINVPEVAFDSEASSYQFDISIFKETSELSEAKPLIRSELLPKLRQIFQQFGKDLLATHGNDIQVPESQVKSNYTRGNQKSSFTEIKDSASKPKKNALPSSTSTSAPVSSTNKVPQNGSGNSTSIYLEPTFNVPSSELYETFLDKQRILAWTRSAQFFNSGPKLETKEKFELFGGNVISELVSCEKDKKLVFHWKLKDWSAPFNSTIEMTFHESQEFHETKLQVKWTGIPVGEEDRVRANFEEYYVRSIKLTFGFGAVL
A stimulation of Hsp90 ATPase activity by Aha1 (ATP-regenerating coupled enzyme assay; 6 uM Aha1, 2 uM Hsp90 dimer) of 20 fold was found for B1 in this work.
